Patent publication US20230183366A1

Target: Cohesin-human OX40 ectodomain protein (human) (UniProt P43489)
Assay: SPR, antibody captured on protein A, soluble cohesin-human OX40 ectodomain injected

Sequence of UniProt P43489 (P43489 26-211 limits assumed, form in doubt): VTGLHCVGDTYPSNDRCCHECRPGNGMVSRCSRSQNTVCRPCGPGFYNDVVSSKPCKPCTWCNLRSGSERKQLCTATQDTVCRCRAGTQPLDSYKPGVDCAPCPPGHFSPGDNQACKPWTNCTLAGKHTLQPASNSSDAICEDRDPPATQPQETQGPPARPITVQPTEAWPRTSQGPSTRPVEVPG

B1: humanized anti OX40 Ab24 IgG1 (antibody, V domains shown)
VH: QVQLQESGPGLVKPSQTLSLTCAVYGGSFSSGYWNWIRKHPGKGLEYIGYISYNGITYHNPSLKSRITINRDTSKNQYSLQLNSVTPEDTAVYYCARYKYDYDGGHAMDYWGQGTLVTVSS
VL: DIQMTQSPSSLSASVGDRVTITCRASQDISNYLNWYQQKPGKAPKLLIYYTSKLHSGVPSRFSGSGSGTDYTLTISSLQPEDFATYYCQQGSALPWTFGQGTKVEIKR
**Q.** With B1 as the binder, how does the Kd read?
**A.** 131 nM

**Q.** What about the bracketed ratio of KD relative to Anti-OX40 IgG1 of the same binder?
**A.** 1

**Q.** What about the bracketed ratio of Ka relative to Anti-OX40 IgG1 of the same binder?
**A.** 1

**Q.** And the bracketed ratio of kd relative to Anti-OX40 IgG1?
**A.** 1

**Q.** And the koff?
**A.** 0.0019 s⁻¹

**Q.** And the kon?
**A.** 14000 M⁻¹ s⁻¹
